Laboratory results published in patent US20260109770A1 (REMD BIOTHERAPEUTICS, published 2026).
Residue numbers refer to the chain shown, from its start.

T1: human CCR4 (hCCR4) (human, UniProt P51679 1-360)
T1 construct: whole, on cells
T1 sequence (looked up): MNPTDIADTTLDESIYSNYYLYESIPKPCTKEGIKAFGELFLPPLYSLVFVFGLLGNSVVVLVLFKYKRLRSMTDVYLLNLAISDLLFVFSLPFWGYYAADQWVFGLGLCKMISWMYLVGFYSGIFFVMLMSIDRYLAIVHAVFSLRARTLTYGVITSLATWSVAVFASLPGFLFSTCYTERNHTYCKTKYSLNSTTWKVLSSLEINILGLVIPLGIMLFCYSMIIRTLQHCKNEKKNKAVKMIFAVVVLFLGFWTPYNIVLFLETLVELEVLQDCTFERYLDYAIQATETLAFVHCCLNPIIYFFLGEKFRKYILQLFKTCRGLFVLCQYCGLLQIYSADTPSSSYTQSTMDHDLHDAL

B1: humanized antibody 41E1C2A5-HC3+LC4 (antibody, human IgG1, kappa, V domains shown)
VH: EVQLVESGGGLVQPGGSLKLSCAASGFSFNAYAMNWVRQASGKGLEWVARIRSKSNNYATYYADSVKDRFTISRDDSKNTAYLQMNSLKTEDTAVYFCVRGGTYGSSSYFDYWGQGTTVTVSS
VL: DIVMTQSPLSLPVTPGEPASIPCRSSKSLLHSNGNTYLYWFLQKPGQSPQLLIYRMSNLASGVPDRFSGSGSGTAFTLKISRVEAEDVGVYYCMQHLEYPFTFGGGTKLEIKR
B2: humanized antibody 41E1C2A5-HC4+LC2 (antibody, human IgG1, kappa, V domains shown)
VH: B1 VH with K78E
VL: B1 VL with P22S
B3: murine-human chimeric (human IgG1) antibody 531B9B1C9 (antibody, V domains shown)
VH: EVQLVESGGGLVQPKGSLKLSCAASGFSFNAYAMNWVRQAPGKGLDWVARIRSKSNNYATYYADSVKDRFTISRDDSESMLYLQMNNLKTEDTAMYFCVRQTYGSRDYAMDYWGQGTSVTVSS
VL: DVVMTQTPLSLPVSLGDQASISCRSSQSLVHSNGNTYLHWYLQKPGQSPKLLIYKVSNRFSGVPDRFSGSGSGTDFTLKISRVEAEDLGVYFCCQSTHVPPYTFGGGTKLEIKR
notes: Chimeric antibody derived from murine antibody A13 and human IgG1
B4: mouse antibody 46A5C4B1 (MAb 2) (antibody, V domains shown)
VH: EVQLVESGGGLVQPKGSLKLSCAASGFSFNAYAMNWVRQAPGKGLEWVARIRSKSNNYATYYADSVKDRFIISRDDSESMLYLQMNNLKTEDTAMYFCVRGGTYGSTSYFDYWGQGTTLTVSS
VL: DIVMTQAAPSVPVTPGESVSISCRSSKSLLHSNGNTYLYWFLQRPGQSPQLLIYRMSNLASGVPDRFSGSGSGTAFTLRISRVEAEDVGVYYCMQHLEYPFTFGGGTKLEIK
notes: Mouse monoclonal antibody from a hybridoma; also called A2
B5: mouse antibody 41E1C2A5 (MAb 1) (antibody, V domains shown)
VH: B4 VH with I71T, S79T, T107S
VL: B4 VL with S22P, E110Q, K112R
notes: Mouse monoclonal antibody from a hybridoma; also called A1
B6: mouse antibody 80E4D1F11 (MAb 3) (antibody, V domains shown)
VH: B4 VH with A31T, D68A, I71T
VL: B4 VL
notes: Mouse monoclonal antibody from a hybridoma; also called A3
B7: murine-human chimeric (human IgG1) antibody 516D7D12 (antibody, V domains shown)
VH: EVQLVESGGGLVQPKGSLKLSCAASGFSFNTYAMNWVRQAPGKGLEWVARIRTKSNNYATYYADSVKDRFTISRDDSESMLYLQMNNLKTEDTAMYYCVRGGSGLRYVRYFDVWGTGTTVTVSS
VL: DIVMTQATPSVPVTPGESVSISCRSSKSLLHSNGNTYLYWFLQRPGQSPQLLIYRMSNLASGVPERFSGSGSGSAFTLRVSRVEAEDVGVYYCMQHLEYPFTFGSGTKLEIKR
notes: Chimeric antibody derived from murine antibody A10 and human IgG1
B8: murine-human chimeric (human IgG1) antibody 525F2F3F11 (antibody, V domains shown)
VH: B7 VH with S79N
VL: B7 VL
notes: Chimeric antibody derived from murine antibody A11 and human IgG1
B9: murine-human chimeric (human IgG1) antibody 504E12D8D12 (antibody, V domains shown)
VH: B7 VH with D64A, S79T, R106N
VL: B7 VL with T8A, P12F, T14I, E65D, V80I
notes: Chimeric antibody derived from murine antibody A18 and human IgG1; also called chimeric 504E12D8D12 mAb
B10: mouse antibody 538H5G10 (MAb 19) (antibody, V domains shown)
VH: B3 VH with D46E, Y58F, F97Y
VL: DVVMTQTPLSLPVSLGDRASISCRSSQSLVHSNGNTYLHWYLQKPGQSPRLLIYKVSNRFSGVPDRFSGSGSGTDFTLKISRVEAEDLGVYFCSQNTHVPPYTFGGGTKLEIK
B11: mouse antibody 506G6G5 (MAb 8) (antibody, V domains shown)
VH: B7 VH with T53S, L105I, R106S
VL: B4 VL with T74S, G105S
B12: mouse antibody 508C11A12 (MAb 5) (antibody, V domains shown)
VH: B7 VH with S79N, M80I, L105I, R106K
VL: B4 VL with D65E, T74S, G105S
B13: mouse antibody 529D10C10 (MAb 6) (antibody, V domains shown)
VH: B7 VH with K15R, T31A, N86I, L105I, R109K
VL: B4 VL with D65E, T74S, G105S
B14: mouse antibody 536H9D10 (MAb 7) (antibody, V domains shown)
VH: B7 VH with K15G, T31A, N86I, L105I, R109K
VL: B4 VL with D65E, T74S, G105S
B15: mouse antibody 531A6A3 (MAb 9) (antibody, V domains shown)
VH: B7 VH with N30K, S79T, R106N
VL: B4 VL with T74S, G105S
B16: mouse antibody 419C7B3B2 (MAb 4) (antibody, V domains shown)
VH: EVQLQQSGPELVKPGSSVKISCKASGYTFTDYNMDWVKQSHGKSLEWIGAINPNNGGTGYTQKFKGKATLTVDKSSSTAFMELRSLTSEDSAVYYCARRGVYMFAYWGQGTLVTVSA
VL: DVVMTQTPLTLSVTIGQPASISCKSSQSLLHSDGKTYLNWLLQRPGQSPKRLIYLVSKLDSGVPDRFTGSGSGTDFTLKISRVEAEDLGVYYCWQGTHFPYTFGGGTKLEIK
B17: murine-human chimeric (human IgG1) antibody 41E1C2A5 (antibody, V domains shown)
VH: B4 VH with I71T, S79T, T107S
VL: B7 VL with T8A, S22P, E65D, S74T, V80I, S105G, E110Q, K112R

biological target: T2, human C-C chemokine receptor type 8 (hCCR8) (human, UniProt P51685 1-355); experiment: cell-based or functional assay
T2 sequence (P51685 whole entry): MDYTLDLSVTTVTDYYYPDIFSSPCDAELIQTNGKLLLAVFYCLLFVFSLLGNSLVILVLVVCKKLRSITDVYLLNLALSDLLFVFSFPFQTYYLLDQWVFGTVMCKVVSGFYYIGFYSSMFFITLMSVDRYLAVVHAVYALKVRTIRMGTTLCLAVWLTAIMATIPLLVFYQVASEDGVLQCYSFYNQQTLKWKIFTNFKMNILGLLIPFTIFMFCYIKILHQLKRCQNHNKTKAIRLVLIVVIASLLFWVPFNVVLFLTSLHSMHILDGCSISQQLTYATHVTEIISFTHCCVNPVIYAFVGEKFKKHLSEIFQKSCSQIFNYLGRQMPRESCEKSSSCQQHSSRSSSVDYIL

Row | Binder | IC50 (nM), antagonist activity measured by calcium flux assay [nM]
1 | B1 | 25.3
2 | B2 | 13.1

biological target: T2, human C-C chemokine receptor type 8 …; experiment: cell-based or functional assay; remark: another data set of the same source

Row | Binder | IC50 (nM), antagonist activity measured by β-arrestin assay [nM]
3 | B3 | 2.18
4 | B4 | 6.24
5 | B5 | 4.68
6 | B6 | 7.11
7 | B7 | 1.51
8 | B8 | 1.52
9 | B9 | 0.867

biological target: T2, human C-C chemokine receptor type 8 …; experiment: cell-based or functional assay; remark: another data set of the same source

Row | Binder | inhibition of β-arrestin production (CCR8 CHO-K1 β-arrestin bioassay, 2 nM hCCL1, subclone supernatant) [%]
10 | B10 | ≥ 50
11 | B4 | ≥ 50
12 | B11 | ≥ 50
13 | B12 | ≥ 50
14 | B13 | ≥ 50
15 | B14 | ≥ 50
16 | B15 | ≥ 50
17 | B5 | ≥ 50
18 | B6 | ≥ 50
19 | B16 | ≥ 50

biological target: T2, human C-C chemokine receptor type 8 …; experiment: cell-based or functional assay; remark: another data set of the same source

Row | Binder | EC50 of ADCC activity (column head prints IC50 (nM)); ADCC/NFAT-reporter-Jurkat bioassay [nM]
20 | B3 | 0.028
21 | B17 | 0.049
22 | B9 | 0.015

biological target: T1, human CCR4 (hCCR4); experiment: flow cytometry on hCCR4-expressing CHO-K1 cells against parental CHO-K1 cells
Method: The antibodies were further screened for binding to human CCR4 (hCCR4) by flow cytometry. The antibodies were incubated with CHO-K1 cells and hCCR4-expressing CHO-K1 cells for 60 minutes at 4° C. The cells were washed thoroughly with PBS buffer and were then incubated with FITC-conjugated goat anti-mouse IgG Fc antibody or anti-human IgG Fc antibody. Mean Fluorescence Intensity (MFI) of antibody binding on the cells were analyzed by flow cytometry (Table 7).

Row | Binder | binding result
23 | B3 | no binding
24 | B4 | no binding
25 | B5 | no binding
26 | B6 | no binding
27 | B7 | no binding
28 | B8 | no binding
29 | B9 | no binding
